According to patent US20160264649A1:

Legend:
Assay in all cases: cell-based or functional assay
[1] = target: HIV-1 Env of isolate 92UG001 (subtype D) (HIV-1)
[2] = target: HIV-1 Env of isolate 92UG005 (subtype D) (HIV-1)
[3] = target: HIV-1 Env of isolate 92UG024 (subtype D) (HIV-1)
[4] = target: HIV-1 Env of isolate 92UG046 (subtype D) (HIV-1)
[5] = target: HIV-1 Env of isolate 92UG114 (subtype D) (HIV-1)
[6] = target: HIV-1 Env of isolate 98CN006 (subtype CRF08_BC) (HIV-1)
[7] = target: HIV-1 Env of isolate 98CN009 (subtype CRF07_BC) (HIV-1)
[8] = target: HIV-1 Env of isolate MGRM-D-001 (subtype D) (HIV-1)
[9] = target: HIV-1 Env of isolate MGRM-D-002 (subtype D) (HIV-1)
[10] = target: HIV-1 Env of isolate MGRM-D-003 (subtype D) (HIV-1)
[11] = target: HIV-1 Env of isolate MGRM-D-004 (subtype D) (HIV-1)
[12] = target: HIV-1 Env of isolate MGRM-D-005 (subtype D) (HIV-1)
[13] = target: HIV-1 Env of isolate MGRM-D-008 (subtype D) (HIV-1)
[14] = target: HIV-1 Env of isolate MGRM-D-011 (subtype D) (HIV-1)
[15] = target: HIV-1 Env of isolate MGRM-D-012 (subtype D) (HIV-1)
[16] = target: HIV-1 Env of isolate MGRM-D-013 (subtype D) (HIV-1)
[17] = target: HIV-1 Env of isolate MGRM-D-014 (subtype D) (HIV-1)
[18] = target: HIV-1 Env of isolate MGRM-D-016 (subtype D) (HIV-1)
[19] = target: HIV-1 Env of isolate MGRM-D-018 (subtype D) (HIV-1)
[20] = target: HIV-1 Env of isolate MGRM-D-019 (subtype D) (HIV-1)
[21] = target: HIV-1 Env of isolate MGRM-D-020 (subtype D) (HIV-1)
[22] = target: HIV-1 Env of isolate MGRM-D-021 (subtype D) (HIV-1)
[23] = target: HIV-1 Env of isolate MGRM-D-022 (subtype D) (HIV-1)
[24] = target: HIV-1 Env of isolate MGRM-D-024 (subtype D) (HIV-1)
[25] = target: HIV-1 Env of isolate MGRM-D-026 (subtype D) (HIV-1)
[26] = target: HIV-1 Env of isolate MGRM-D-028 (subtype D) (HIV-1)
[27] = target: HIV-1 Env of isolate MGRM-D-029 (subtype D) (HIV-1)
[28] = target: HIV-1 Env of isolate MGRM-F1-004 (subtype F) (HIV-1)
[29] = target: HIV-1 Env of isolate MGRM-F1-006 (subtype F) (HIV-1)
[30] = target: HIV-1 Env of isolate MGRM-F1-008 (subtype F) (HIV-1)
[31] = target: HIV-1 Env of isolate MGRM-F1-010 (subtype F) (HIV-1)
[32] = target: HIV-1 Env of isolate MGRM-F1-012 (subtype F) (HIV-1)
[33] = target: HIV-1 Env of isolate MGRM-F1-013 (subtype F) (HIV-1)
[34] = target: HIV-1 Env of isolate MGRM-F1-014 (subtype F) (HIV-1)
[35] = target: HIV-1 Env of isolate MGRM-F1-015 (subtype F) (HIV-1)
[36] = target: HIV-1 Env of isolate MGRM-F1-016 (subtype F) (HIV-1)
[37] = target: HIV-1 Env of isolate MGRM-F1-017 (subtype F) (HIV-1)
[38] = target: HIV-1 Env of isolate MGRM-F1-018 (subtype F) (HIV-1)
[39] = target: HIV-1 Env of isolate MGRM-F1-020 (subtype F) (HIV-1)
[40] = target: HIV-1 Env of isolate MGRM-F1-021 (subtype F) (HIV-1)
[41] = target: HIV-1 Env of isolate MGRM-F1-022 (subtype F) (HIV-1)
[42] = target: HIV-1 Env of isolate MGRM-F1-023 (subtype F) (HIV-1)
[43] = target: HIV-1 Env of pseudovirus isolate MGRM-G-001 (subtype G) (HIV-1)
[44] = target: HIV-1 Env of pseudovirus isolate MGRM-G-004 (subtype G) (HIV-1)
[45] = target: HIV-1 Env of pseudovirus isolate MGRM-G-006 (subtype G) (HIV-1)
[46] = target: HIV-1 Env of pseudovirus isolate MGRM-G-009 (subtype G) (HIV-1)
[47] = target: HIV-1 Env of pseudovirus isolate MGRM-G-011 (subtype G) (HIV-1)
[48] = target: HIV-1 Env of pseudovirus isolate MGRM-G-013 (subtype G) (HIV-1)
[49] = target: HIV-1 Env of pseudovirus isolate MGRM-G-014 (subtype G) (HIV-1)
[50] = target: HIV-1 Env of pseudovirus isolate MGRM-G-015 (subtype G) (HIV-1)
[51] = target: HIV-1 Env of pseudovirus isolate MGRM-G-016 (subtype G) (HIV-1)
[52] = target: HIV-1 Env of pseudovirus isolate MGRM-G-017 (subtype G) (HIV-1)
[53] = target: HIV-1 Env of pseudovirus isolate MGRM-G-019 (subtype G) (HIV-1)
[54] = target: HIV-1 Env of pseudovirus isolate MGRM-G-024 (subtype G) (HIV-1)
[55] = target: HIV-1 Env of pseudovirus isolate MGRM-G-025 (subtype G) (HIV-1)
[56] = target: HIV-1 Env of pseudovirus isolate MGRM-G-027 (subtype G) (HIV-1)
[57] = target: HIV-1 Env of pseudovirus isolate MGRM-G-028 (subtype G) (HIV-1)
[58] = target: envelope of aMLV pseudovirus (negative control)

B1: PGT-125 (antibody, V domains shown)
VH: QSQLQESGPRLVEASETLSLTCNVSGESTGACTYFWGWVRQAPGKGLEWIGSLSHCQSFWGSGWTFHNPSLKSRLTISLDTPKNQVFLKLTSLTAADTATYYCARFDGEVLVYNHWPKPAWVDLWGRGIPVTVSS
VL: QSALTQPPSASGSPGQSITISCNGTATNFVSWYQQFPDKAPKLIIFGVDKRPPGVPDRFSGSRSGTTASLTVSRLQTDDEAVYYCGSLVGNWDVIFGGGTTLTVL
In the case of B1, the IC50 (neutralization) [1] is reported as over 50 µg/mL, the IC50 (neutralization) [2] is reported as over 50 µg/mL and the IC50 (neutralization) [3] is reported as over 50 µg/mL. For the same binder, the IC50 (neutralization) [4] was over 50 µg/mL, the IC50 (neutralization) [5] was 0.349 µg/mL and the IC50 (neutralization) [6] was 0.201 µg/mL. For the same binder, the IC50 (neutralization) [7] was 0.03 µg/mL, the IC50 (neutralization) [8] was 2.84 µg/mL and the IC50 (neutralization) [9] was 0.118 µg/mL. The IC50 (neutralization) [10] was 0.065 µg/mL, the IC50 (neutralization) [11] was 0.371 µg/mL and the IC50 (neutralization) [12] was over 50 µg/mL. The IC50 (neutralization) [13] was over 50 µg/mL, the IC50 (neutralization) [14] was 0.008 µg/mL and the IC50 (neutralization) [15] was over 50 µg/mL. The IC50 (neutralization) [16] was over 50 µg/mL, the IC50 (neutralization) [17] was 0.12 µg/mL and the IC50 (neutralization) [18] was over 50 µg/mL. For the same binder, the IC50 (neutralization) [19] was 0.049 µg/mL, the IC50 (neutralization) [20] was over 50 µg/mL and the IC50 (neutralization) [21] was 0.015 µg/mL. The IC50 (neutralization) [22] was 0.04 µg/mL, the IC50 (neutralization) [23] was over 50 µg/mL and the IC50 (neutralization) [24] was over 50 µg/mL. It also gave an IC50 (neutralization) [25] of over 50 µg/mL, an IC50 (neutralization) [26] of over 50 µg/mL and an IC50 (neutralization) [27] of over 50 µg/mL. The IC50 (neutralization) [28] was 0.035 µg/mL, the IC50 (neutralization) [29] was 0.361 µg/mL and the IC50 (neutralization) [30] was over 50 µg/mL. The IC50 (neutralization) [31] was over 50 µg/mL, the IC50 (neutralization) [32] was over 50 µg/mL and the IC50 (neutralization) [33] was over 50 µg/mL. It also gave an IC50 (neutralization) [34] of over 50 µg/mL, an IC50 (neutralization) [35] of over 50 µg/mL and an IC50 (neutralization) [36] of over 50 µg/mL. For the same binder, the IC50 (neutralization) [37] was over 50 µg/mL, the IC50 (neutralization) [38] was over 50 µg/mL and the IC50 (neutralization) [39] was over 50 µg/mL. For the same binder, the IC50 (neutralization) [40] was over 50 µg/mL, the IC50 (neutralization) [41] was over 50 µg/mL and the IC50 (neutralization) [42] was 0.012 µg/mL. The IC50 [43] was 0.033 µg/mL, the IC50 [44] was over 50 µg/mL and the IC50 [45] was over 50 µg/mL. The IC50 [46] was over 50 µg/mL, the IC50 [47] was over 50 µg/mL and the IC50 [48] was over 50 µg/mL. The IC50 [49] was 0.007 µg/mL, the IC50 [50] was over 50 µg/mL and the IC50 [51] was over 50 µg/mL. The IC50 [52] was over 50 µg/mL, the IC50 [53] was over 50 µg/mL and the IC50 [54] was over 50 µg/mL. The IC50 [55] was over 50 µg/mL, the IC50 [56] was 34.4 µg/mL and the IC50 [57] was 0.012 µg/mL. The IC50 [58] was over 50 µg/mL.

B2: PGT-123 (antibody, V domains shown)
VH: QLHLQESGPGLVKPPETLSLTCSVSGASINDAYWSWIRQSPGKRPEWVGYVHHSGDTNYNPSLKRRVTFSLDTAKNEVSLKLVDLTAADSATYFCARALHGKRIYGIVALGELFTYFYMDVWGKGTAVTVSS
VL: SSMSVSPGETAKISCGKESIGSRAVQWYQQKPGQPPSLIIYNNQDRPAGVPERFSASPDFRPGTTATLTITNVDAEDEADYYCHIYDARGGTNWVFDRGTTLTVL
Work on B2 yielded an IC50 (neutralization) [1] of over 50 µg/mL, an IC50 (neutralization) [2] of 9.79 µg/mL and an IC50 (neutralization) [3] of over 50 µg/mL. For the same binder, the IC50 (neutralization) [4] was over 50 µg/mL, the IC50 (neutralization) [5] was 0.005 µg/mL and the IC50 (neutralization) [6] was 0.008 µg/mL. The IC50 (neutralization) [7] was 0.007 µg/mL, the IC50 (neutralization) [8] was 0.147 µg/mL and the IC50 (neutralization) [9] was 0.012 µg/mL. The IC50 (neutralization) [10] was 3.74 µg/mL, the IC50 (neutralization) [11] was over 50 µg/mL and the IC50 (neutralization) [12] was over 50 µg/mL. For the same binder, the IC50 (neutralization) [13] was over 50 µg/mL, the IC50 (neutralization) [14] was 0.012 µg/mL and the IC50 (neutralization) [15] was over 50 µg/mL. The IC50 (neutralization) [16] was over 50 µg/mL, the IC50 (neutralization) [17] was 0.009 µg/mL and the IC50 (neutralization) [18] was over 50 µg/mL. It also gave an IC50 (neutralization) [19] of 0.007 µg/mL, an IC50 (neutralization) [20] of over 50 µg/mL and an IC50 (neutralization) [21] of 0.018 µg/mL. It also gave an IC50 (neutralization) [22] of 11.1 µg/mL, an IC50 (neutralization) [23] of over 50 µg/mL and an IC50 (neutralization) [24] of 0.023 µg/mL. It also gave an IC50 (neutralization) [25] of over 50 µg/mL, an IC50 (neutralization) [26] of 0.132 µg/mL and an IC50 (neutralization) [27] of over 50 µg/mL. It also gave an IC50 (neutralization) [28] of 1.78 µg/mL, an IC50 (neutralization) [29] of 6.89 µg/mL and an IC50 (neutralization) [30] of over 50 µg/mL. The IC50 (neutralization) [31] was 0.016 µg/mL, the IC50 (neutralization) [32] was 22.2 µg/mL and the IC50 (neutralization) [33] was 0.08 µg/mL. It also gave an IC50 (neutralization) [34] of 0.111 µg/mL, an IC50 (neutralization) [35] of over 50 µg/mL and an IC50 (neutralization) [36] of 4.95 µg/mL. It also gave an IC50 (neutralization) [37] of over 50 µg/mL, an IC50 (neutralization) [38] of 0.054 µg/mL and an IC50 (neutralization) [39] of 0.051 µg/mL. The IC50 (neutralization) [40] was 0.307 µg/mL, the IC50 (neutralization) [41] was 0.075 µg/mL and the IC50 (neutralization) [42] was 0.053 µg/mL. The IC50 [43] was 0.009 µg/mL, the IC50 [44] was 0.181 µg/mL and the IC50 [45] was over 50 µg/mL. The IC50 [46] was 33.5 µg/mL, the IC50 [47] was 14.9 µg/mL and the IC50 [48] was 3.97 µg/mL. The IC50 [49] was 0.005 µg/mL, the IC50 [50] was over 50 µg/mL and the IC50 [51] was over 50 µg/mL. The IC50 [52] was 0.026 µg/mL, the IC50 [53] was 0.008 µg/mL and the IC50 [54] was 0.032 µg/mL. For the same binder, the IC50 [55] was 0.046 µg/mL, the IC50 [56] was 0.182 µg/mL and the IC50 [57] was 0.008 µg/mL. The IC50 [58] was over 50 µg/mL.
